Experimental findings from the supplement of paper PMC5998384 are described below.

The data set deals with HeLa Kyoto. Put plainly: melting temperature (median over replicates), in situ; higher = more thermally stable.
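Also: HeLa Kyoto cells synchronized by double thymidine or nocodazole block, proteins quantified by TMT10plex mass spectrometry, three independent biological replicates.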

Turning to “MKVLGRSFFWVLFPVLPWAVQAVEHEEVAQRVIKLHRGRGVAAMQSRQWVRDSCRKLSGLLRQKNAVLNKLKTAIGAVEKDVGLSDEEKLFQVHTFEIFQKELNESENSVFQAVYGLQRALQGDYKDVVNMKESSRQRLEALREAAIKEETEYMELLAAEKHQVEALKNMQHQNQSLSMLDEILEDVRKAADRLEEEIEEHAFDDNKSVKGVNFEAVLRVEEEEANSKQNITKREVEDDLGLSMLIDSQNNQYILTKPRDSTIPRADHHFIKDIVTIGMLSLPCGWLCTAIGLPTMFGYIICGVLLGPSGLNSIKSIVQVETLGEFGVFFTLFLVGLEFSPEKLRKVWKISLQGPCYMTLLMIAFGLLWGHLLRIKPTQSVFISTCLSLSSTPLVSRFLMGSARGDKEGDIDYSTVLLGMLVTQDVQLGLFMAVMPTLIQAGASASSSIVVEVLRILVLIGQILFSLAAVFLLCLVIKKYLIGPYYRKLHMESKGNKEILILGISAFIFLMLTVTELLDVSMELGCFLAGALVSSQGPVVTEEIATSIEPIRDFLAIVFFASIGLHVFPTFVAYELTVLVFLTLSVVVMKFLLAALVLSLILPRSSQYIKWIVSAGLAQVSEFSFVLGSRARRAGVISREVYLLILSVTTLSLLLAPVLWRAAITRCVPRPERRSSL [TMCO3]”, the melting temperature by setting is: (cell cycle stage: G1/S) 54.4 °C; (cell cycle stage: mitosis) 52.9 °C.
For the setting “cell cycle stage: mitosis”, “MTQSVVVQVGQCGNQIGCCFWDLALREHAAVNQKGIYDEAISSFFRNVDTRVVGDGGSISKGKICSLKARAVLIDMEEGVVNEILQGPLRDVFDTKQLITDISGSGNNWAVGHKVFGSLYQDQILEKFRKSAEHCDCLQCFFIIHSMGGGTGSGLGTFLLKVLEDEFPEVYRFVTSIYPSGEDDVITSPYNSILAMKELNEHADCVLPIDNQSLFDIISKIDLMVNSGKLGTTVKPKSLVTSSSGALKKQHKKPFDAMNNIVANLLLNLTSSARFEGSLNMDLNEISMNLVPFPQLHYLVSSLTPLYTLTDVNIPPRRLDQMFSDAFSKDHQLLRADPKHSLYLACALMVRGNVQISDLRRNIERLKPSLQFVSWNQEGWKTSLCSVPPVGHSHSLLALANNTCVKPTFMELKERFMRLYKKKAHLHHYLQVEGMEESCFTEAVSSLSALIQEYDQLDATKNMPVQDLPRLSIAM [TUBE1]” showed a melting temperature of 55.1 °C.
Take “MAHAHIQGGRRAKSRFVVCIMSGARSKLALFLCGCYVVALGAHTGEESVADHHEAEYYVAAVYEHPSILSLNPLALISRQEALELMNQNLDIYEQQVMTAAQKDVQIIVFPEDGIHGFNFTRTSIYPFLDFMPSPQVVRWNPCLEPHRFNDTEVLQRLSCMAIRGDMFLVANLGTKEPCHSSDPRCPKDGRYQFNTNVVFSNNGTLVDRYRKHNLYFEAAFDVPLKVDLITFDTPFAGRFGIFTCFDILFFDPAIRVLRDYKVKHVVYPTAWMNQLPLLAAIEIQKAFAVAFGINVLAANVHHPVLGMTGSGIHTPLESFWYHDMENPKSHLIIAQVAKNPVGLIGAENATGETDPSHSKFLKILSGDPYCEKDAQEVHCDEATKWNVNAPPTFHSEMMYDNFTLVPVWGKEGYLHVCSNGLCCYLLYERPTLSKELYALGVFDGLHTVHGTYYIQVCALVRCGGLGFDTCGQEITEATGIFEFHLWGNFSTSYIFPLFLTSGMTLEVPDQLGWENDHYFLRKSRLSSGLVTAALYGRLYERD [BTD]”: the melting temperature (cell cycle stage: mitosis) is 58 °C.
As for “MGLLDRLSVLLGLKKKEVHVLCLGLDNSGKTTIINKLKPSNAQSQNILPTIGFSIEKFKSSSLSFTVFDMSGQGRYRNLWEHYYKEGQAIIFVIDSSDRLRMVVAKEELDTLLNHPDIKHRRIPILFFANKMDLRDAVTSVKVSQLLCLENIKDKPWHICASDAIKGEGLQEGVDWLQDQIQTVKT [ARL6]”, the melting temperature (cell cycle stage: mitosis) is 50.3 °C.
Regarding FLNC, the melting temperature (cell cycle stage: mitosis) is 55 °C.
With “MSSSSSSPRETYEEDREYESQAKRLKTEEGEIDYSAEEGENRREATPRGGGDGGGGGRSFSQPEAGGSHHKVSVSPVVHVRGLCESVVEADLVEALEKFGTICYVMMMPFKRQALVEFENIDSAKECVTFAADEPVYIAGQQAFFNYSTSKRITRPGNTDDPSGGNKVLLLSIQNPLYPITVDVLYTVCNPVGKVQRIVIFKRNGIQAMVEFESVLCAQKAKAALNGADIYAGCCTLKIEYARPTRLNVIRNDNDSWDYTKPYLGRRDRGKGRQRQAILGEHPSSFRHDGYGSHGPLLPLPSRYRMGSRDTPELVAYPLPQASSSYMHGGNPSGSVVMVSGLHQLKMNCSRVFNLFCLYGNIEKVKFMKTIPGTALVEMGDEYAVERAVTHLNNVKLFGKRLNVCVSKQHSVVPSQIFELEDGTSSYKDFAMSKNNRFTSAGQASKNIIQPPSCVLHYYNVPLCVTEETFTKLCNDHEVLTFIKYKVFDAKPSAKTLSGLLEWECKTDAVEALTALNHYQIRVPNGSNPYTLKLCFSTSSHL [HNRNPLL]”, the melting temperature is 47.6 °C (cell cycle stage: G1/S) and 49.7 °C (cell cycle stage: mitosis).
Turning to “MNHLPEDMENALTGSQSSHASLRNIHSINPTQLMARIESYEGREKKGISDVRRTFCLFVTFDLLFVTLLWIIELNVNGGIENTLEKEVMQYDYYSSYFDIFLLAVFRFKVLILAYAVCRLRHWWAIALTTAVTSAFLLAKVILSKLFSQGAFGYVLPIISFILAWIETWFLDFKVLPQEAEEENRLLIVQDASERAALIPGGLSDGQFYSPPESEAGSEEAEEKQDSEKPLLEL [STARD3NL]”, the melting temperature (cell cycle stage: G1/S) came out at 55.4 °C.
Still for that read-out and setting: then “MSAARESHPHGVKRSASPDDDLGSSNWEAADLGNEERKQKFLRLMGAGKKEHTGRLVIGDHKSTSHFRTGEEDKKINEELESQYQQSMDSKLSGRYRRHCGLGFSEVEDHDGEGDVAGDDDDDDDDSPDPESPDDSESDSESEKEESAEELQAAEHPDEVEDPKNKKDAKSNYKMMFVKSSGS [C11ORF58]”, with 55 °C.
For the setting “cell cycle stage: mitosis”, “MASRAGPRAAGTDGSDFQHRERVAMHYQMSVTLKYEIKKLIYVHLVIWLLLVAKMSVGHLRLLSHDQVAMPYQWEYPYLLSILPSLLGLLSFPRNNISYLVLSMISMGLFSIAPLIYGSMEMFPAAQQLYRHGKAYRFLFGFSAVSIMYLVLVLAVQVHAWQLYYSKKLLDSWFTSTQEKKHK [JAGN1]” showed a melting temperature of 54.8 °C.
For “MPSETPQAEVGPTGCPHRSGPHSAKGSLEKGSPEDKEAKEPLWIRPDAPSRCTWQLGRPASESPHHHTAPAKSPKILPDILKKIGDTPMVRINKIGKKFGLKCELLAKCEFFNAGGSVKDRISLRMIEDAERDGTLKPGDTIIEPTSGNTGIGLALAAAVRGYRCIIVMPEKMSSEKVDVLRALGAEIVRTPTNARFDSPESHVGVAWRLKNEIPNSHILDQYRNASNPLAHYDTTADEILQQCDGKLDMLVASVGTGGTITGIARKLKEKCPGCRIIGVDPEGSILAEPEELNQTEQTTYEVEGIGYDFIPTVLDRTVVDKWFKSNDEEAFTFARMLIAQEGLLCGGSAGSTVAVAVKAAQELQEGQRCVVILPDSVRNYMTKFLSDRWMLQKGFLKEEDLTEKKPWWWHLRVQELGLSAPLTVLPTITCGHTIEILREKGFDQAPVVDEAGVILGMVTLGNMLSSLLAGKVQPSDQVGKVIYKQFKQIRLTDTLGRLSHILEMDHFALVVHEQIQYHSTGKSSQRQMVFGVVTAIDLLNFVAAQERDQK [CBS]”, the melting temperature is, setting by setting: (cell cycle stage: G1/S) 55 °C; (cell cycle stage: mitosis) 55.8 °C.
On the same counts, the results for PLXNA2 are 54.1 °C and 54.4 °C.
Regarding “MNCEREQLRGNQEAAAAPDTMAQPYASAQFAPPQNGIPAEYTAPHPHPAPEYTGQTTVPEHTLNLYPPAQTHSEQSPADTSAQTVSGTATQTDDAAPTDGQPQTQPSENTENKSQPKRLHVSNIPFRFRDPDLRQMFGQFGKILDVEIIFNERGSKGFGFVTFENSADADRAREKLHGTVVEGRKIEVNNATARVMTNKKTVNPYTNGWKLNPVVGAVYSPEFYAGTVLLCQANQEGSSMYSAPSSLVYTSAMPGFPYPAATAAAAYRGAHLRGRGRTVYNTFRAAAPPPPIPAYGGVVYQDGFYGADIYGGYAAYRYAQPTPATAAAYSDSYGRVYAADPYHHALAPAPTYGVGAMNAFAPLTDAKTRSHADDVGLVLSSLQASIYRGGYNRFAPY [RBFOX1]”, the melting temperature (cell cycle stage: G1/S) is 49.8 °C.
“MAPQRRAATKAPEGNGAAERRNRSSTKKDRAPREVQRLWQRPWLRTAGLGAGFVLTALLLWSSLGADDGVAEVLARRGEVVAGRFIEVPCSEDYDSHRRFEGCTPRKCGRGVTDVVITREEAERIRSVAEKGLSLGGSDGGASILDLHSGALSVGKHFVNLYRYFGDKIQNIFSEEDFRLYREVRQKVQLTIAEAFGISASSLHLTKPTFFSRINSTEARTAHDEYWHAHVDKVTYGSFDYTSLLYLSNYLEDFGGGRFMFMEEGANKTVEPRAGRVSFFTSGSENLHRVEKVHWGTRYAITIAFSCNPDHGIEDPAFP [OGFOD3]”: the melting temperature (cell cycle stage: mitosis) worked out at 53.1 °C.
Still for that read-out and setting: then “MLQQDSNDDTEDVSLFDAEEETTNRPRKAKIRHPVASFFHLFFRVSAIIVYLLCGLLSSSFITCMVTIILLLSCDFWAVKNVTGRLMVGLRWWNHIDEDGKSHWVFESRKESSQENKTVSEAESRIFWLGLIACPVLWVIFAFSALFSFRVKWLAVVIMGVVLQGANLYGYIRCKVRSRKHLTSMATSYFGKQFLRQNTGDDQTS [TVP23B]”, with 56 °C.
For the substance “MDHSHHMGMSYMDSNSTMQPSHHHPTTSASHSHGGGDSSMMMMPMTFYFGFKNVELLFSGLVINTAGEMAGAFVAVFLLAMFYEGLKIARESLLRKSQVSIRYNSMPVPGPNGTILMETHKTVGQQMLSFPHLLQTVLHIIQVVISYFLMLIFMTYNGYLCIAVAAGAGTGYFLFSWKKAVVVDITEHCH [SLC31A1]”, the melting temperature was found to be 56.5 °C (cell cycle stage: G1/S) and 54.9 °C (cell cycle stage: mitosis).
“MLRRVTVAAVCATRRKLCEAGRELAALWGIETRGRCEDSAAARPFPILAMPGRNKAKSTCSCPDLQPNGQDLGENSRVARLGADESEEEGRRGSLSNAGDPEIVKSPSDPKQYRYIKLQNGLQALLISDLSNMEGKTGNTTDDEEEEEVEEEEEDDDEDSGAEIEDDDEEGFDDEDEFDDEHDDDLDTEDNELEELEERAEARKKTTEKQSAAALCVGVGSFADPDDLPGLAHFLEHMVFMGSLKYPDENGFDAFLKKHGGSDNASTDCERTVFQFDVQRKYFKEALDRWAQFFIHPLMIRDAIDREVEAVDSEYQLARPSDANRKEMLFGSLARPGHPMGKFFWGNAETLKHEPRKNNIDTHARLREFWMRYYSSHYMTLVVQSKETLDTLEKWVTEIFSQIPNNGLPRPNFGHLTDPFDTPAFNKLYRVVPIRKIHALTITWALPPQQQHYRVKPLHYISWLVGHEGKGSILSFLRKKCWALALFGGNGETGFEQNSTYSVFSISITLTDEGYEHFYEVAYTVFQYLKMLQKLGPEKRIFEEIRKIEDNEFHYQEQTDPVEYVENMCENMQLYPLQDILTGDQLLFEYKPEVIGEALNQLVPQKANLVLLSGANEGKCDLKEKWFGTQYSIEDIENSWAELWNSNFELNPDLHLPAENKYIATDFTLKAFDCPETEYPVKIVNTPQGCLWYKKDNKFKIPKAYIRFHLISPLIQKSAANVVLFDIFVNILTHNLAEPAYEADVAQLEYKLVAGEHGLIIRVKGFNHKLPLLFQLIIDYLAEFNSTPAVFTMITEQLKKTYFNILIKPETLAKDVRLLILEYARWSMIDKYQALMDGLSLESLLSFVKEFKSQLFVEGLVQGNVTSTESMDFLKYVVDKLNFKPLEQEMPVQFQVVELPSGHHLCKVKALNKGDANSEVTVYYQSGTRSLREYTLMELLVMHMEEPCFDFLRTKQTLGYHVYPTCRNTSGILGFSVTVGTQATKYNSEVVDKKIEEFLSSFEEKIENLTEEAFNTQVTALIKLKECEDTHLGEEVDRNWNEVVTQQYLFDRLAHEIEALKSFSKSDLVNWFKAHRGPGSKMLSVHVVGYGKYELEEDGTPSSEDSNSSCEVMQLTYLPTSPLLADCIIPITDIRAFTTTLNLLPYHKIVK [NRDC]” had a melting temperature (cell cycle stage: G1/S) of 50.5 °C and a melting temperature (cell cycle stage: mitosis) of 50.9 °C.
